Earlier results as cited in PMC6815954, “Rational design of caspase-responsive smart molecular probe for positron emission tomography imaging of drug-induced apoptosis” (Theranostics, 2019).

Tested on: tumor
Parameters: method as in PMID 25972517

B1: ^99mTc-Annexin V: established radiotracer (protein, UniProt P08758 2-320, looked up)
Annexin A5: AQVLRGTVTDFPGFDERADAETLRKAMKGLGTDEESILTLLTSRSNAQRQEISAAFKTLFGRDLLDDLKSELTGKFEKLIVALMKPSRLYDAYELKHALKGAGTNEKVLTEIIASRTPEELRAIKQVYEEEYGSSLEDDVVGDTSGYYQRMLVVLLQANRDPDAGIDEAQVEQDAQALFQAGELKWGTDEEKFITIFGTRSVSHLRKVFDKYMTISGFQIEETIDRETSGNLEQLLLAVVKSIRSIPAYLAETLYYAMKGAGTDDHTLIRVMVSRSEIDLFNIRKEFRKNFATSLYSMIKGDTSGDYKKALLLLCGEDD
modifications: 99mTc radiolabel
notes: established radiotracer
differential response to treatment: little differential response
